Measurements reported in article PMC8059062.

Legend:
Experiment in all cases: co-purification after bacterial coexpression, molar ratio by rpHPLC; (Ca2+)4-CaM copurified with His-GST-tagged FGF NTD fragments; complexes separated on a C-18 column, ratio from peak areas at 220 nm
[1] = target: FGF13ANTD (FGF13A N-terminal domain, aa 1-66) (human) (UniProt Q92913)
[2] = target: FGF11ANTD (FGF11A N-terminal domain, aa 1-68) (human) (UniProt Q92914)
[3] = target: FGF14ANTD (FGF14A N-terminal domain, aa 1-68) (human) (UniProt Q92915)
[4] = target: FGF12ANTD (FGF12A N-terminal domain, aa 1-70) (human) (UniProt P61328)

Measured: stoichiometry N ((Ca2+)4-CaM per FGF NTD)

Sequence of FGF14ANTD (FGF14A N-terminal domain, aa 1-68) (human) (Q92915 other isoform, or with tags, fused parts or gaps): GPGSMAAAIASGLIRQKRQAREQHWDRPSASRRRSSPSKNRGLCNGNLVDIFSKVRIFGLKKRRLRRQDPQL
Sequence of FGF13ANTD (FGF13A N-terminal domain, aa 1-66) (human) (Q92913 other isoform, or with tags, fused parts or gaps): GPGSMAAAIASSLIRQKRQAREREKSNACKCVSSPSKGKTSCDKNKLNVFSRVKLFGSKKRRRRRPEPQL
Sequence of FGF12ANTD (FGF12A N-terminal domain, aa 1-70) (human) (P61328 other isoform, or with tags, fused parts or gaps): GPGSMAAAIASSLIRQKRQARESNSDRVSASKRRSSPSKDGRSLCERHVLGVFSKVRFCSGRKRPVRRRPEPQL
Sequence of FGF11ANTD (FGF11A N-terminal domain, aa 1-68) (human) (Q92914 other isoform, or with tags, fused parts or gaps): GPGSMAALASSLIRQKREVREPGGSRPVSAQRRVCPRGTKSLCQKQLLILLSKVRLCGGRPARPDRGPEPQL

calmodulin, wild type, full-length (aa 1-148) (from UniProt P0DP23 1-149) (natural protein)
1: all assays above
